Laboratory results published in patent publication US20200115460A1 (TEIJIN PHARMA, published 2020).

What was measured:
rat IGF-I receptor [1] = biological target: T1, rat IGF-I receptor (rat, UniProt P24062 31-1370); assay: Cell ELISA on P3U1 cells expressing the receptor
T1 construct: Expressed on transfected P3U1 cells; also called NP_494694

mouse IGF-I receptor [2] = biological target: T2, mouse IGF-I receptor (mouse, UniProt Q60751 31-1373); assay: Cell ELISA on P3U1 cells expressing the receptor
T2 construct: Expressed on transfected P3U1 cells; also called NP_034643

human IGF-I receptor [3] = biological target: T3, human IGF-I receptor (human, UniProt P08069 31-1367); assay: Cell ELISA, 10 nM antibody, fixed P3U1 cells expressing the receptor
T3 construct: Expressed on transfected P3U1 or HEK 293T cells, or native on human myoblasts; also called hIGFIR; IGF-I receptor of human (NP_000866)
Experimental: (§1) After the lipofection, the P3U1 cells were cultured at least overnight and were added to a 96-well plate (coated with poly-D-lysine) at a concentration of 0.8×10⁵ cells/well and immobilized with 10% buffered formalin (Mildform® 10 NM, Wako), followed by blocking with phosphate buffer containing 3% BSA. The resulting plate was used for ELISA.
(§2) After washing with a washing liquid twice, anti-mouse-IgG antibody-HRP conjugate solutions (30 μL) adjusted to predetermined concentrations with 0.1% skimmed milk/3% BSA/PBS were added to respective wells and were subjected to reaction at room temperature for about 1 hour. After washing with a washing liquid twice, 50 μL of a substrate (TMB) was added to each well to start the reaction. After about 20 minutes, 50 μL of 0.5 M sulfuric acid was added to each well. The absorbances at 450 nm and 550 nm were measured, and the difference between absorbance values at 450 nm and 550 nm was calculated.

rat IGF-I receptor [4] = biological target: T1, rat IGF-I receptor; assay: as above
Experimental: as §1, §2

[5] = biological target: T4, guinea pig IGF-I receptor (guinea pig, UniProt P08069 31-1367 (human entry)); assay: as above
T4 construct: Expressed on transfected P3U1 cells, or native on guinea pig myoblasts; also called XP_003475316
Experimental: as §1, §2

mouse IGF-I receptor [6] = biological target: T2, mouse IGF-I receptor; assay: as above
Experimental: as §1, §2

[7] = biological target: T5, Substitution 2 of the CR domain (human IGF-I receptor E294D, FLAG tag) (human, UniProt P08069 31-1367); assay: Cell ELISA, 1 nM antibody, fixed HEK 293T cells
T5 construct: Expressed on transfected HEK 293T cells
Experimental: (§3) On the next day, each plasmid DNA was transfected into the cells by lipofection. On the following day, the HEK 293T cells were detached with 0.25% trypsin/EDTA and were suspended in a broth. The HEK 293T cells were added to a 96-well plate (coated with poly-D-lysine) at a concentration of 0.8×10⁵ cells/well and were incubated at 37° C. under conditions of 5% CO₂ overnight. The medium was removed from the 96-well plate, and the cells were immobilized with a 10% buffered formalin (Mildform® 10 NM, Wako). The 10% buffered formalin was replaced with a blocking buffer (3% BSA/PBS/sodium azide), and the plate was used in ELISA.
(§4) After washing with a washing liquid twice, anti-mouse-IgG antibody-HRP conjugate solutions (50 μL) adjusted to predetermined concentrations with 0.1% skimmed milk/3% BSA/PBS were added to respective wells and were subjected to reaction at room temperature for about 1 hour. After washing with a washing liquid twice, 100 μL of a substrate (TMB) was added to each well to start the reaction. After about 30 minutes, 100 μL of 0.5 M sulfuric acid was added to each well to stop the reaction, and the absorbances at 450 nm was measured. The value of the absorbance at 450 nm was evaluated as the avidity.

[8] = biological target: T6, wild-type rat IGF-I receptor (FLAG tag, Example 7) (rat, UniProt P24062 31-1370); assay: Cell ELISA, 1 nM antibody, fixed HEK 293T cells
T6 construct: Expressed on transfected HEK 293T cells
Experimental: as §3, §4

[9] = biological target: T7, Substitution 3 of the CR domain (human IGF-I receptor G315S/S316T, FLAG tag) (human, UniProt P08069 31-1367); assay: Cell ELISA, 1 nM antibody, fixed HEK 293T cells
T7 construct: Expressed on transfected HEK 293T cells
Experimental: as §3, §4

[10] = biological target: T8, wild-type human IGF-I receptor (FLAG tag, Example 7) (human, UniProt P08069 31-1367); assay: Cell ELISA, 1 nM antibody, fixed HEK 293T cells
T8 construct: Expressed on transfected HEK 293T cells
Experimental: as §3, §4

[11] = biological target: T9, Substitution 1 of the CR domain (human IGF-I receptor D245N/A247T, FLAG tag) (human, UniProt P08069 31-1367); assay: Cell ELISA, 1 nM antibody, fixed HEK 293T cells
T9 construct: Expressed on transfected HEK 293T cells
Experimental: as §3, §4

human IGF-I receptor [12] = biological target: T3, human IGF-I receptor; assay: Cell ELISA, fixed cells expressing the receptor
Experimental: In ELISA, antibody solutions (30 μL) adjusted to predetermined concentrations with 0.1% skimmed milk/3% BSA/PBS were added to respective wells and were subjected to reaction at room temperature for about 1 hour. After washing with a washing liquid (tris buffer containing Tween) twice, anti-mouse-IgG antibody-ALP conjugate solutions (30 μL) adjusted to predetermined concentrations with 0.1% skimmed milk/3% BSA/PBS were added to respective wells and were subjected to reaction at room temperature for about 1 hour. After washing with a washing liquid twice, 100 μL of a substrate (PNPP) was added to each well to start the reaction.

T2 sequence (Q60751 other isoform, or with tags, fused parts or gaps limits assumed): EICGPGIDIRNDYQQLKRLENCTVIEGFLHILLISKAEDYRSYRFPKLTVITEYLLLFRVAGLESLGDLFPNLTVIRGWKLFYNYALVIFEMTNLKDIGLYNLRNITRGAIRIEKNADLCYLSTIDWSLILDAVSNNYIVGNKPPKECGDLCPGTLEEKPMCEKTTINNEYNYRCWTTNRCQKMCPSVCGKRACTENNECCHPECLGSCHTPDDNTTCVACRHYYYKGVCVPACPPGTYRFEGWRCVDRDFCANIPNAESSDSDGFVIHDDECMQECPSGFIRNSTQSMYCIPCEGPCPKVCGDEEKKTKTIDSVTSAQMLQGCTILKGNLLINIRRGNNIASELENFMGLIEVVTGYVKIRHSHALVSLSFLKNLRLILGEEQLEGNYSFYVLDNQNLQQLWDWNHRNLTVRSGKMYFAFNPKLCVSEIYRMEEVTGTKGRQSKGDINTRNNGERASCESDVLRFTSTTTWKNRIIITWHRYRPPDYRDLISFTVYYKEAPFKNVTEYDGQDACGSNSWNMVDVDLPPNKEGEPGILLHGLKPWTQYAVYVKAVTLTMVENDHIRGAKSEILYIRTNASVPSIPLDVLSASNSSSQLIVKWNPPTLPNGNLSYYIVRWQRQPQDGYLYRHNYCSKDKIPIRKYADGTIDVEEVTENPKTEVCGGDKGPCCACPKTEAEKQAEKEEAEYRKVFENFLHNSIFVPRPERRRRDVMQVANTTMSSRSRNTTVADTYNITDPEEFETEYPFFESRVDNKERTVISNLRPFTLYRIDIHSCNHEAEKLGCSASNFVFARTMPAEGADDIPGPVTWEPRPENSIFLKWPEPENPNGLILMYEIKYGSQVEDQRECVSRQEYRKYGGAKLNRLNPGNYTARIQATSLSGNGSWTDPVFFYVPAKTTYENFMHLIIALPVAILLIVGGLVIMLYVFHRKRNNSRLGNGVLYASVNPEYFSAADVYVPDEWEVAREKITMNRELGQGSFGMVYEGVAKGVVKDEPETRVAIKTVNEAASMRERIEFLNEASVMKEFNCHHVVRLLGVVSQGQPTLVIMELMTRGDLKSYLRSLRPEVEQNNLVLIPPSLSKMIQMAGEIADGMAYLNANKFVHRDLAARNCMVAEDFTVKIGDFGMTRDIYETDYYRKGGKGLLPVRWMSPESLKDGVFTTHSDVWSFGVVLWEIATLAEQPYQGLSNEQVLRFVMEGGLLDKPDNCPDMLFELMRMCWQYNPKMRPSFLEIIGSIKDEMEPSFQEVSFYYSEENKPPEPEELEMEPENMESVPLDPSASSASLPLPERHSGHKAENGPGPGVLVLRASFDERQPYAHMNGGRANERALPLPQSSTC
T1 sequence (P24062 31-1370 limits assumed): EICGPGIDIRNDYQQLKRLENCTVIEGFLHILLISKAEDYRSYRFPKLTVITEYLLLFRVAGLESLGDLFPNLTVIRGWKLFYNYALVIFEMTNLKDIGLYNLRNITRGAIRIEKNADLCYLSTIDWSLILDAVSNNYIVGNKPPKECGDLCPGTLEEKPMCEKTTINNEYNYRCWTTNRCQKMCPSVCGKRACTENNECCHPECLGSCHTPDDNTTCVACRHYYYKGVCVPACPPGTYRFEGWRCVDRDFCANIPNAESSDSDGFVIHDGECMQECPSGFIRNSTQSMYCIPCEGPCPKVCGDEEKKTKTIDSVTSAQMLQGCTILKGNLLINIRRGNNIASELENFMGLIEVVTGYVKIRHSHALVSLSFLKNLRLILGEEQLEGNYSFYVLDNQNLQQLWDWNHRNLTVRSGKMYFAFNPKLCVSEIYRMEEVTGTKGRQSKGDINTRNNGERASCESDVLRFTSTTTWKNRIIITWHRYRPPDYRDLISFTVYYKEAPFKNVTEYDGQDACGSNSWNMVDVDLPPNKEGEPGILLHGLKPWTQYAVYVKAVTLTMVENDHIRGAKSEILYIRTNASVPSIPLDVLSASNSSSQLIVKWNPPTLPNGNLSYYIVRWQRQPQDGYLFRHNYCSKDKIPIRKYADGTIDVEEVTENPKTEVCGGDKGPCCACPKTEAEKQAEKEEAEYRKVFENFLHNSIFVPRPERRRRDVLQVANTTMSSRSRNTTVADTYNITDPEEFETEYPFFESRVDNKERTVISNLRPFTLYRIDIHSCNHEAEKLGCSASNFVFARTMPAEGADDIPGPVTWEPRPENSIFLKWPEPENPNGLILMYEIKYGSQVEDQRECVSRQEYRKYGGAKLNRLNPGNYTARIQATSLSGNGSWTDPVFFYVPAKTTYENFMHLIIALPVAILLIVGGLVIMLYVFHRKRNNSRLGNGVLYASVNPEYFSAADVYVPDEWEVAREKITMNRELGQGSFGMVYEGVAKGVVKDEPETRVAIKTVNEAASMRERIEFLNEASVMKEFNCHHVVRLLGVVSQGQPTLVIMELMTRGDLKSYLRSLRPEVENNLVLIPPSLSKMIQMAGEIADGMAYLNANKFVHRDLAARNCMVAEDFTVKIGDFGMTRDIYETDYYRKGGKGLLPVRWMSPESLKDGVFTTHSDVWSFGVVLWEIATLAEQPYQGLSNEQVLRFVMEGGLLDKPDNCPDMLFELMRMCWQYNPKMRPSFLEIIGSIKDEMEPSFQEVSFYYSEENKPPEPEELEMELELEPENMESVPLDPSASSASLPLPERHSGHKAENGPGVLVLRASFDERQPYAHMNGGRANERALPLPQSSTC
T6 sequence (P24062 other isoform, or with tags, fused parts or gaps limits assumed): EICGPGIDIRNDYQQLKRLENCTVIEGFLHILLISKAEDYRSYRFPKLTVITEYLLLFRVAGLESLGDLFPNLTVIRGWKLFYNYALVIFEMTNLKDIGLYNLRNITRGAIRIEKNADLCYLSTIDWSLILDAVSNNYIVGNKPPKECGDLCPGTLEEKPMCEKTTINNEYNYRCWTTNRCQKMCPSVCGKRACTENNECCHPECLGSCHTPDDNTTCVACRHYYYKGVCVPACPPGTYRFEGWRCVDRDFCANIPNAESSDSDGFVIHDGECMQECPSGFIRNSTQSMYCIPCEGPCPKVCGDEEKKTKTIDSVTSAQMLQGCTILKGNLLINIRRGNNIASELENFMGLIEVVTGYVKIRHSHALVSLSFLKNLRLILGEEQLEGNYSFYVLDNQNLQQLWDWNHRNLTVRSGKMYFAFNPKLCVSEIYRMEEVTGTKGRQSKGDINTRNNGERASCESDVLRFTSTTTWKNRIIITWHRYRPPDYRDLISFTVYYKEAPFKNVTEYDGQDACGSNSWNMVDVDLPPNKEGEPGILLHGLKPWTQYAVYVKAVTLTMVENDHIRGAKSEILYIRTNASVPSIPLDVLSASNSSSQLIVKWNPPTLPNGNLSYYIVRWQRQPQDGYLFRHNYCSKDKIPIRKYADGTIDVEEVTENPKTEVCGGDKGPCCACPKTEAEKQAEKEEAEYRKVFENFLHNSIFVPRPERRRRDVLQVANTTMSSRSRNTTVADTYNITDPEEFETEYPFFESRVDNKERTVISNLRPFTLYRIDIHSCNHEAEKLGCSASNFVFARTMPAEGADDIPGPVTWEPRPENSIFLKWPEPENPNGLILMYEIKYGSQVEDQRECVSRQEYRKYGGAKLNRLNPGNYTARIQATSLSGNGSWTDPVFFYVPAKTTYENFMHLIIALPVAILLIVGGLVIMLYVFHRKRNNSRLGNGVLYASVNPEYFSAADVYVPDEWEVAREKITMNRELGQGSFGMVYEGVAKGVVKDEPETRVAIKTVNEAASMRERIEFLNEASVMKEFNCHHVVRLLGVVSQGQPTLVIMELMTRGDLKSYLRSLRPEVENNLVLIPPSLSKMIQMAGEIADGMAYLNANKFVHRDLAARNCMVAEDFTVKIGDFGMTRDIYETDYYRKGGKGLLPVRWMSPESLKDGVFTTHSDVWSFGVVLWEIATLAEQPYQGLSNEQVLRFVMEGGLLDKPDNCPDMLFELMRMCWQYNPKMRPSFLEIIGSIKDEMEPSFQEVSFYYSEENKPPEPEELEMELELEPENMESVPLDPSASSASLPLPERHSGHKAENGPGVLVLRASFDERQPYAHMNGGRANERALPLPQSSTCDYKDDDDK

B1: IGF11-16 (antibody, mouse IgG1, kappa, V domains shown)
VH: QIQLQQPGAELVKPGASVKLSCKAPGYTFTSYWMHWVKQRPGQGLEWIGETNPSNSVTNYNEKFKSKATLTVDKSSSTAYMQLSSLTSEDSAVYYCTIGRGRGFAYWGQGTLVTVSA
VL: DIQMNQSPSSLSASLGDTITITCRASQNINFWLSWCQQKPGNIPKLLIYKASNLHTGVPSRFSGSGSGTDFTLTISSLQPEDIATYYCLQGQSYPYTFGGGTKLEIKR
notes: no cleavage site is stated; also called IGF-I receptor agonist antibody; IGF11-16 antibody
binding result (rat IGF-I receptor [1]): no binding (tested: 10 nM) | binding result (mouse IGF-I receptor [2]): no binding (tested: 10 nM) | Avidity (absorbance difference 450-550 nm, Mock cells = 1) (human IGF-I receptor [3]): 5.4 fold of Mock cells | Avidity (absorbance difference 450-550 nm, Mock cells = 1) (rat IGF-I receptor [4]): 1 fold of Mock cells | Avidity (absorbance difference 450-550 nm, Mock cells = 1) [5]: 5.3 fold of Mock cells | Avidity (absorbance difference 450-550 nm, Mock cells = 1) (mouse IGF-I receptor [6]): 0.9 fold of Mock cells | absorbance at 450 nm [7]: ≥ 2 absorbance at 450 nm | absorbance at 450 nm [8]: ~1 absorbance at 450 nm | absorbance at 450 nm [9]: ~1 absorbance at 450 nm | absorbance at 450 nm [10]: ≥ 2 absorbance at 450 nm | absorbance at 450 nm [11]: ≥ 2 absorbance at 450 nm | avidity (absorbance difference 405-550 nm, Mock cells = 1) at 0.5 nM (human IGF-I receptor [12]): 2.9 fold of Mock cells | avidity (absorbance difference 405-550 nm, Mock cells = 1) at 5 nM (human IGF-I receptor [12]): 3.7 fold of Mock cells
